Assays:
PatGmac = test: Macrocyclization of substrate peptides by PatGmac; type: biochemical, Prochloron sp.
Experimental: (§1) For other macrocyclization reactions, 100 μM peptide (e.g. VGAGIGFPAYDG (SEQ ID NO: 68), VGAGIGFPAYRG (SEQ ID NO: 69), or GVAGIGFPAYRG (SEQ ID NO: 84)) was incubated with 20 μM enzyme in a range of buffers for 24 h at 37° C. (see FIGS. 1 to 3).
The VPAPIPFPAYDG (SEQ ID NO: 85) peptide was chosen to match the residues equivalent to P8-P4′, the eight-residue cassette and four C-terminal residue macrocyclization signature.
(§2) PatGmac K598D produced cyclo[VGAGIGFP] with only 8% linear product, at a rate over an order of magnitude faster than wild-type PatGmac with VGAGIGFPAYDG (SEQ ID NO: 68) (FIGS. 2 and 3).

[…] [1] = Macrocyclization of substrate with modified recognition sequence (Asp to Arg); type: biochemical
Experimental: as §1, §2

[…] [2] = Macrocyclization reaction, final product ratios by LC-ESI MS ion counts; type: biochemical
[…] [3] = as above; type: biochemical; settings: for Cyclic ion count (%) (M + H = 699) / Linear ion count (%) (M + H = 717) / Unprocessed ion count (%) (M + H = 1123): 100 μM peptide, 50 μM enzyme, 120 h at 37° C.
Experimental: For macrocyclization reactions comparing final product ratios after substrate depletion, 100 μM peptide (VGAGIGFPAYDG) (SEQ ID NO: 68) was incubated with 50 μM enzyme in 150 mM NaCl, 10 mM HEPES pH 8, 1 mM TCEP for 120 h at 37° C. Samples were analyzed by ESI or MALDI MS (LCT, Micromass or 4800 MALDI TOF/TOF Analyser, ABSciex).
LC-MS was performed using a Phenomenex Sunfire C18 column (4.6 mm×150 mm). Solvent A was H2O containing 0.1% formic acid and solvent B was MeOH containing 0.1% formic acid. Gradient: 0-2 min 10% B; 2-22 min 10% B to 100% B; 22-27 min 100% B; 27-30 min 100% B to 10% B. High resolution mass spectral data were obtained from a Thermo Instruments MS system (LTQ XL/LTQ Orbitrap Discovery) coupled to a Thermo Instruments HPLC system (Accela PDA detector, Accela PDA autosampler and Accela Pump). The following conditions were used: capillary voltage 45 V, capillary temperature 320° C., auxiliary gas flow rate 10-20 arbitrary units, sheath gas flow rate 40-50 arbitrary units, spray voltage 4.5 kV, mass range 100-2000 amu (maximum resolution 30000).
The peptide VGAGIGFPAYDG (SEQ ID NO: 68) was used as a substrate for PatGmac in biochemical assays (FIG. 4C[[c]]). The ratio of macrocyclized to linear product using this substrate peptide was determined by ion counts obtained from liquid chromatography-electrospray ionization mass spectrometry (LC-ESI MS).

Sequence of PatGmac (as listed by the source): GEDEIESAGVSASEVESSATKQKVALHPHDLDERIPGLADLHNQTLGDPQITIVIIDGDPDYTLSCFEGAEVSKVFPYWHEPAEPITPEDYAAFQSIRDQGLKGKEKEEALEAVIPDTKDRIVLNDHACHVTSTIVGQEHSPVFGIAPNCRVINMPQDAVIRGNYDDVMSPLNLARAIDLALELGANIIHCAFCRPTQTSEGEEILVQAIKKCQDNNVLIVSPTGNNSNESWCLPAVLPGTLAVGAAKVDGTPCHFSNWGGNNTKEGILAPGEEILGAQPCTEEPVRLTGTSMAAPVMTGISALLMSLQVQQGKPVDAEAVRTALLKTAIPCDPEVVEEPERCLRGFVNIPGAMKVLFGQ

Molecule | macrocyclization of the substrate by PatGmac (rate) (PatGmac) | ratio of macrocyclized and linear products with VGAGIGFPAYRG ([…] [1]) | reaction rate with VGAGIGFPAYRG ([…] [1]) | substrate consumption rate relative to native protein ([…] [2]) | product formed (macrocyclized vs linear) ([…] [3]) | Cyclic ion count (%) (M + H = 699) ([…] [3]) | Linear ion count (%) (M + H = 717) ([…] [3]) | Unprocessed ion count (%) (M + H = 1123) ([…] [3]) | linear product ([…] [1]) [%]
VGAGIGFPAYRG | an order of magnitude faster than GVAGIGFPAYRG | – | – | – | – | – | – | – | –
VPAPIPFPAYDG [substrate mimic peptide, prolines mimic heterocycles] | can in fact be macrocyclized by PatGmac (albeit slowly) | – | – | – | – | – | – | – | –
PatGmac K594D (protein) GEDEIESAGVSASEVESSATKQKVALHPHDLDERIPGLADLHNQTLGDPQITIVIIDGDPDYTLSCFEGAEVSKVFPYWHEPAEPITPEDYAAFQSIRDQGLDGKEKEEALEAVIPDTKDRIVLNDHACHVTSTIVGQEHSPVFGIAPNCRVINMPQDAVIRGNYDDVMSPLNLARAIDLALELGANIIHCAFCRPTQTSEGEEILVQAIKKCQDNNVLIVSPTGNNSNESWCLPAVLPGTLAVGAAKVDGTPCHFSNWGGNNTKEGILAPGEEILGAQPCTEEPVRLTGTSMAAPVMTGISALLMSLQVQQGKPVDAEAVRTALLKTAIPCDPEVVEEPERCLRGFVNIPGAMKVLFGQ | – | equal amounts of macrocyclized and linear products | reacted extremely slowly | approximately the rate of native protein | approximately one third of the product was macrocyclized | 29 | 71 | 0 | –
PatGmac K598D (protein) GEDEIESAGVSASEVESSATKQKVALHPHDLDERIPGLADLHNQTLGDPQITIVIIDGDPDYTLSCFEGAEVSKVFPYWHEPAEPITPEDYAAFQSIRDQGLKGKEDEEALEAVIPDTKDRIVLNDHACHVTSTIVGQEHSPVFGIAPNCRVINMPQDAVIRGNYDDVMSPLNLARAIDLALELGANIIHCAFCRPTQTSEGEEILVQAIKKCQDNNVLIVSPTGNNSNESWCLPAVLPGTLAVGAAKVDGTPCHFSNWGGNNTKEGILAPGEEILGAQPCTEEPVRLTGTSMAAPVMTGISALLMSLQVQQGKPVDAEAVRTALLKTAIPCDPEVVEEPERCLRGFVNIPGAMKVLFGQ | – | – | over an order of magnitude faster than wild-type PatGmac with […] | approximately the rate of native protein | only linear VGAGIGFP | 0 | 100 | 0 | 8
PatGmacΔ1 (protein) GEDEIESAGVSASEVESSATKQKVALHPHDLDERIPGLADLHNQTLGDPQITIVIIDGDPDYTLSCFEGAEVSKVFPYWHEPAEPITKDRIVLNDHACHVTSTIVGQEHSPVFGIAPNCRVINMPQDAVIRGNYDDVMSPLNLARAIDLALELGANIIHCAFCRPTQTSEGEEILVQAIKKCQDNNVLIVSPTGNNSNESWCLPAVLPGTLAVGAAKVDGTPCHFSNWGGNNTKEGILAPGEEILGAQPCTEEPVRLTGTSMAAPVMTGISALLMSLQVQQGKPVDAEAVRTALLKTAIPCDPEVVEEPERCLRGFVNIPGAMKVLFGQ | – | – | – | approximately the rate of native protein | only linear VGAGIGFP | 0 | 92 | 8 | –
PatGmacΔ2 (protein) GEDEIESAGVSASEVESSATKQKVALHPHDLDERIPGLADLHNQTLGDPQITIVIIDGDPDYTLSCFEGAEVSKVFPYWHEPAEPILNDHACHVTSTIVGQEHSPVFGIAPNCRVINMPQDAVIRGNYDDVMSPLNLARAIDLALELGANIIHCAFCRPTQTSEGEEILVQAIKKCQDNNVLIVSPTGNNSNESWCLPAVLPGTLAVGAAKVDGTPCHFSNWGGNNTKEGILAPGEEILGAQPCTEEPVRLTGTSMAAPVMTGISALLMSLQVQQGKPVDAEAVRTALLKTAIPCDPEVVEEPERCLRGFVNIPGAMKVLFGQ | – | – | – | approximately the rate of native protein | only linear VGAGIGFP | 0 | >99 | <1 | –
PatGmac R589D K594D K598D (protein) GEDEIESAGVSASEVESSATKQKVALHPHDLDERIPGLADLHNQTLGDPQITIVIIDGDPDYTLSCFEGAEVSKVFPYWHEPAEPITPEDYAAFQSIDDQGLDGKEDEEALEAVIPDTKDRIVLNDHACHVTSTIVGQEHSPVFGIAPNCRVINMPQDAVIRGNYDDVMSPLNLARAIDLALELGANIIHCAFCRPTQTSEGEEILVQAIKKCQDNNVLIVSPTGNNSNESWCLPAVLPGTLAVGAAKVDGTPCHFSNWGGNNTKEGILAPGEEILGAQPCTEEPVRLTGTSMAAPVMTGISALLMSLQVQQGKPVDAEAVRTALLKTAIPCDPEVVEEPERCLRGFVNIPGAMKVLFGQ | – | equal amounts of macrocyclized and linear products | reacted extremely slowly | substantially slower | only produced linear substrate | 0 | 6 | 94 | –
H618A: site-directed catalytic triad mutant of PatGmac (inactive mutant) (protein) GEDEIESAGVSASEVESSATKQKVALHPHDLDERIPGLADLHNQTLGDPQITIVIIDGDPDYTLSCFEGAEVSKVFPYWHEPAEPITPEDYAAFQSIRDQGLKGKEKEEALEAVIPDTKDRIVLNDAACHVTSTIVGQEHSPVFGIAPNCRVINMPQDAVIRGNYDDVMSPLNLARAIDLALELGANIIHCAFCRPTQTSEGEEILVQAIKKCQDNNVLIVSPTGNNSNESWCLPAVLPGTLAVGAAKVDGTPCHFSNWGGNNTKEGILAPGEEILGAQPCTEEPVRLTGTSMAAPVMTGISALLMSLQVQQGKPVDAEAVRTALLKTAIPCDPEVVEEPERCLRGFVNIPGAMKVLFGQ | – | – | – | – | no detectable reaction | – | – | – | –
